# Target: ALG-2 (human (endogenous in HeLa)) (UniProt O75340)
# UniProt O75340, sequence (O75340 whole entry): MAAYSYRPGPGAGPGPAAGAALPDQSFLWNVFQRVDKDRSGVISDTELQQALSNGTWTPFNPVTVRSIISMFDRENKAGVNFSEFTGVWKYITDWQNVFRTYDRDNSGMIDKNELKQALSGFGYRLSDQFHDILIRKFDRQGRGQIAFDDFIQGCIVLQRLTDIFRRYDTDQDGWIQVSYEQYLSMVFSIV
binder,measurement,value
QGPPYPTYPGYPGYCQ [ALIX peptide],viability of EGFP-expressing HeLa cells 1 hour after 50 uM digitonin in the presence of 10 uM peptide (about 60% without the peptide),37 % viability
